The record followed here is US20060073087A1, “Method and apparatus for the formation of particles” (priority 1994, published 2006).

The data set can be described thus: colorimetric beta-lactamase activity assay with Nitrocefin (method of O'Callaghan). In kind it is biochemical. Particulars: particles formed from aqueous solution with ethanol and supercritical CO2; tested colorimetrically with Nitrocefin. The source says:
This illustrates the successful use of the method and apparatus of the invention in preparing particulate protein products in a controlled manner, even where the proteins are insoluble in, or incompatible with, organic solvents.

B1: R-TEM beta-lactamase (protein, UniProt P62593 24-286, looked up)
Beta-lactamase TEM: HPETLVKVKDAEDQLGARVGYIELDLNSGKILESFRPEERFPMMSTFKVLLCGAVLSRVDAGQEQLGRRIHYSQNDLVEYSPVTEKHLTDGMTVRELCSAAITMSDNTAANLLLTTIGGPKELTAFLHNMGDHVTRLDRWEPELNEAIPNDERDTTMPAAMATTLRKLLTGELLTLASRQQLIDWMEADKVAGPLLRSALPAGWFIADKSGAGERGSRGIIAALGPDGKPSRIVVIYTTGSQATMDERNRQIAEIGASLIKHW
notes: water-soluble protein R-TEM beta-lactamase, batch number 1TEM1L88, formed into particles by the method of the invention
B1: the “enzymatic activity of the particulate product” value is given as “retained substantial enzymatic activity”.
